In PMC9363500 (Communications Biology, 2022):
Blank lines part the entries; values can stand above or below the molecule they belong to.

B3: 6×His-FAK KFL_(776–841) (domain or fragment, human, UniProt Q05397 776-841, looked up)
chain: {6×His}-HRPQEIAMWQPNVEDSTVLDLRGIGQVLPTHLMEERLIRQQQEMEEDQRWLEKEERFLKPDVRLSR
modifications: also: fluorescent label on His-tag
notes: source: E. coli, purified (nickel column, Superdex 75 SEC); not shown: His6, N-terminal, kept

How the values were obtained:
[1] = target: 6×His–PYK2 KFL_(728–839) (human) (UniProt Q14289); assay: ITC; 25 °C; 20 mM HEPES pH 7.5, 150 mM NaCl, 2 mM DTT, 5 mM Ca2+; CaM (300 µM) injected into KFL constructs in the cell (30 or 50 µM), or FERM domains (500 µM) injected into CaM (50 µM)
[2] = target: 6×His–PYK2 KFL_(728–839) (human) (UniProt Q14289); assay: ITC; 25 °C; 20 mM HEPES pH 7.5, 150 mM NaCl, 2 mM DTT, 1 mM EGTA; CaM (300 µM) injected into PYK2 KFL728–839 (30 µM)
[3] = target: B3; assay: fluorescence polarisation; fluorescence anisotropy; labelled 6×His protein at 50 nM, unlabelled MBP-fused protein serially diluted; 20 mM HEPES, 200 mM NaCl, 1 mM DTT, pH 6.5; conditions: both partners purified
[4] = target: T1, 6×His-FAK KFL_(776–841) (human, UniProt Q05397 776-841, fluorescent label from the NanoTemper His-tag labelling kit (MST, fluorescence anisotropy)); assay: FP
T1 chain: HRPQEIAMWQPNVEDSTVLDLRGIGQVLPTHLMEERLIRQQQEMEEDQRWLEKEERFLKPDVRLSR

[5] = target: T2, FAK KFL 776-841 (Homo sapiens, UniProt Q05397); assay: MST (self-association)
T2 chain: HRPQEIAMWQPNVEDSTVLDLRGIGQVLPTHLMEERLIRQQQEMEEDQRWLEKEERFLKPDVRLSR

[6] = target: the molecule itself; assay: SEC-MALS; Superdex 200; 20 mM HEPES, 200 mM NaCl, 2 mM DTT, pH 6.5 and 7.5; DAWN MALS detector
[7] = target: the molecule itself; assay: MST; labelled 6×His protein at 50 nM, unlabelled protein serially diluted; 20 mM HEPES, 200 mM NaCl, 1 mM DTT, pH 6.5; dimer to monomers

B2: FAK KFL 776-841 (protein)
chain: HRPQEIAMWQPNVEDSTVLDLRGIGQVLPTHLMEERLIRQQQEMEEDQRWLEKEERFLKPDVRLSR
modifications: not fully specified
- Kd [5]: 848 nM

Molecule: B3
- stoichiometry N [6]: 2
- Kd [7]: ~800 nM

More lines, now with the values ahead:

- stoichiometry N [1]: 1
- stoichiometry N [2]: 1
Molecule: 6×His–CaM (recombinant calmodulin) (from UniProt P0DP23 1-149) (natural protein)

- binding result [3]: binds
- Kd [4]: 730 nM
B1: MBP–FAK KFL_(776–841) (domain or fragment, human, UniProt Q05397 776-841, looked up)
chain: HRPQEIAMWQPNVEDSTVLDLRGIGQVLPTHLMEERLIRQQQEMEEDQRWLEKEERFLKPDVRLSR
notes: not shown: MBP, N-terminal, kept
